Data reported in publication PMC9283966.

Columns and labels:
Details in all cases: glycan lost
[1] = Western blot of conditioned medium
[2] = Western blot of thrombin-antithrombin complexes
[3] = chromogenic anti-FXa assay, recombinant protein
[4] = control: β antithrombin (Ala169)
[5] = control: wild type (Ser169 background)

Row | Substance | expression_or_secretion [1, 4] | other: protease inhibitory activity [2, 4] | other: protease inhibitory activity, other: anti-FXa activity [3, 4] | expression_or_secretion [1, 5] | other: protease inhibitory activity [2, 5] | other: protease inhibitory activity, other: anti-FXa activity [3, 5]
1 | antithrombin: His224 in β background | decreases | abolishes | abolishes | – | – | –
2 | antithrombin: p.Asn224His | – | – | – | decreases | no change | no change, 1.38 vs 1.39
